This is an account of results in publication PMC12350670.

The assay has as its target recombinant mouse fibroblast activation protein (mouse) (UniProt P97321). Kind of assay: BLI; biotinylated bait protein (30 nM) loaded on Octet streptavidin (SAX) biosensors; serially diluted VNAR-Fc (300-0.412 nM) as analyte; PBS with 1% BSA; kinetic analysis with a bivalent analyte model. A general note: Biolayer interferometry detects binding as a change in optical thickness at a sensor tip.

Chain of recombinant mouse fibroblast activation protein (mouse) (P97321 whole entry): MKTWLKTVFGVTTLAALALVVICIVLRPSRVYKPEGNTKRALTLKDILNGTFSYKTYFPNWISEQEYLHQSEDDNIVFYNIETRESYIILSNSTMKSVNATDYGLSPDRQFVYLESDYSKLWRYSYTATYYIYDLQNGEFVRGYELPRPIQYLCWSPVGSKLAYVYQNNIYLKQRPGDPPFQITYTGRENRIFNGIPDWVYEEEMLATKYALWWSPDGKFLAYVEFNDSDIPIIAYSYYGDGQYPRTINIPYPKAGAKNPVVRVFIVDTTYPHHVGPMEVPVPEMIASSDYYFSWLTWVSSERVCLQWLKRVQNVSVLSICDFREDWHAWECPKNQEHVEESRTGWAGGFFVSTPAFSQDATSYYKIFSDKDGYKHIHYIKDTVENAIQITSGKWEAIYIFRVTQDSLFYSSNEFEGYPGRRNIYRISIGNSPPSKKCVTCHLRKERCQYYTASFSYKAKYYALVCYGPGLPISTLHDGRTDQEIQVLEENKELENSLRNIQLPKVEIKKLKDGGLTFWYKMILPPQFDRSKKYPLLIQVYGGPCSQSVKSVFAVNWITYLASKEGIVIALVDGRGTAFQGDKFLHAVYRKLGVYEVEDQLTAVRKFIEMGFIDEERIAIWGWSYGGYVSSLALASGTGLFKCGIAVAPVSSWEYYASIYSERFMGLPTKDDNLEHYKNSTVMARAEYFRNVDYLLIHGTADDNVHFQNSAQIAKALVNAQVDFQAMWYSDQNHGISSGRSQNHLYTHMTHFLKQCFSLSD

B1: NGS2405-Fc (Fc fusion)
chain: ARVDQTPQTITKETGESLTINCVLRDSNCALSFTYWYRKKSGSTNEESISKGGRYVETVNSGSKSFSLRINDLTVEDSGTYRCNVYVGGGCPHWIDVYGDGTAVTVN
For B1, the Kd was 79.5 nM.

B2: H4-Fc (Fc fusion)
chain: ARVDQTPQTITKETGESLTINCVLRDSNCALSSTYWYRKKSGSTNEESISKGGRYVETVNSGSKSFSLRINDLTVEDSGTYRCNVYVAGMSPCLSWGDVYGDGTAVTVN
For the molecule B2, the Kd was 14.2 nM.
